From publication doi:10.1101/2023.01.28.526015
Where two headings read alike, the source gives them in different places.

Columns and labels:
[1] = target: DesAOMT, O-methyltransferase from Desulfuromonas acetoxidans (Desulfuromonas acetoxidans); test: SEC
[2] = target: DesAOMT, O-methyltransferase from Desulfuromonas acetoxidans (Desulfuromonas acetoxidans); test: crystal structure
[3] = target: StrAOMT, O-methyltransferase from Streptomyces avermitilis (Streptomyces avermitilis); test: crystal structure
[4] = target: StrAOMT, O-methyltransferase from Streptomyces avermitilis (Streptomyces avermitilis); test: crystal structure; remark: listed apart in the source

| Substance | stoichiometry N [1] | stoichiometry N [2] | stoichiometry N [3] | stoichiometry N [4] |
| --- | --- | --- | --- | --- |
| DesAOMT, O-methyltransferase from Desulfuromonas acetoxidans (enzyme) | 2 | 2 |  |  |
| StrAOMT, O-methyltransferase from Streptomyces avermitilis (enzyme) |  |  | 2 | 2 |
